Data on 1 molecule can be found in patent US20220289850 (published 2022).

For the assay, the target named is T1, mouse integrin avb8 (mouse).
T1 chain 1: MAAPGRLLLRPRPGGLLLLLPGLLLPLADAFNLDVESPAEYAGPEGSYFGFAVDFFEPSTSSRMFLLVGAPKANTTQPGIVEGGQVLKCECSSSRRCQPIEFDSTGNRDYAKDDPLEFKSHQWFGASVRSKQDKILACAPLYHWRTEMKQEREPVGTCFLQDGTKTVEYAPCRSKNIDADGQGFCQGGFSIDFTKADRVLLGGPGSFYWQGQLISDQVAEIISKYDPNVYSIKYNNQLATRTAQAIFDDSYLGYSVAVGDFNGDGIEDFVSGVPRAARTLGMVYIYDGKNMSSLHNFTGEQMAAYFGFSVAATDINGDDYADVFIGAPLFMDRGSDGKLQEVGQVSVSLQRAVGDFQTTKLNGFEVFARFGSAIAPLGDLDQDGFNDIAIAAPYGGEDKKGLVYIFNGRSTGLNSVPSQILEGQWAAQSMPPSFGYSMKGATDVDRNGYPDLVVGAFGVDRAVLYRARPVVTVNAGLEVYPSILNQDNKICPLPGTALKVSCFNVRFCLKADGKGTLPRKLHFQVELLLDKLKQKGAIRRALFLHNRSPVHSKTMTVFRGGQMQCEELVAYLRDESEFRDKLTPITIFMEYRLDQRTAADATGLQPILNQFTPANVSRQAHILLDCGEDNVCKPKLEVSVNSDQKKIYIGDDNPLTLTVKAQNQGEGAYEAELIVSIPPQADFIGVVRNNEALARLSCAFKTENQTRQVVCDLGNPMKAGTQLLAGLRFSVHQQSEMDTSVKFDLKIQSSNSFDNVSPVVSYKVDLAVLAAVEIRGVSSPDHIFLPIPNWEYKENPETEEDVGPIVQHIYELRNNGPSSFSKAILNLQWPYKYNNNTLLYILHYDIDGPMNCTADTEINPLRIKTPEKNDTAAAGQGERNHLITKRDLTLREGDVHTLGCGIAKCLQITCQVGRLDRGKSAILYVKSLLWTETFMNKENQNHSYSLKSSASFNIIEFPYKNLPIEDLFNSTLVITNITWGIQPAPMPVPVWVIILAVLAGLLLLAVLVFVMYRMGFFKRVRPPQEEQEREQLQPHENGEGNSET
T1 chain 2: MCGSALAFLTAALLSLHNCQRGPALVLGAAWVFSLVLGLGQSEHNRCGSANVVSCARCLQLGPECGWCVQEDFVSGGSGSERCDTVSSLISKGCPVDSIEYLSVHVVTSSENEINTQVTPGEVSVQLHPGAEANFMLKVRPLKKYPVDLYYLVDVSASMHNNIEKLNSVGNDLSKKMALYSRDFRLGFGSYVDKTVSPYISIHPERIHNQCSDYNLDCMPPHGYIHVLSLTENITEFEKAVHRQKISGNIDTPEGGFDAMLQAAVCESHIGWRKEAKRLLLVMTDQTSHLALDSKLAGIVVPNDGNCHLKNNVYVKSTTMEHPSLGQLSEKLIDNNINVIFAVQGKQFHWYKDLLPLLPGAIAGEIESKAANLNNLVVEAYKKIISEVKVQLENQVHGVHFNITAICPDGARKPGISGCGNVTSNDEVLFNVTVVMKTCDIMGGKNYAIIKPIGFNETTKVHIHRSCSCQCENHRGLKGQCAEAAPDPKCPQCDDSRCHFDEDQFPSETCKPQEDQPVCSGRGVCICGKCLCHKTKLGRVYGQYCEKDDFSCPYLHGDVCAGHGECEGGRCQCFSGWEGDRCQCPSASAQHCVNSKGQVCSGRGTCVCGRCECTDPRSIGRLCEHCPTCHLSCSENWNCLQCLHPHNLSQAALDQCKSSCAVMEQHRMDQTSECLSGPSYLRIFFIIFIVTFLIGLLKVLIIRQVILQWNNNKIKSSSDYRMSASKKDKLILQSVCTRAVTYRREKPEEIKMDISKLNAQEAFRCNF
Briefly: SPR. A general note: Surface plasmon resonance follows binding to a sensor surface in real time, without labels.

B1: ADWA11 2.4 Fab (antibody, V domains shown)
VH: EVQLVESGGGLVQPGGSLRLSCAASGFNIKDYYMNWVRQAPGKGLEWVGWIDPDQGNTIYEPKFQGRFTISADTSKNSAYLQMNSLRAEDTAVYYCARRLLMDYWGQGTLVTVSS
VL: DIQMTQSPSSLSASVGDRVTITCRSTKSLSHFNGNTYLFWYQQKPGKAPKRLIYYMSSLASGVPSRFSGSGSGTDFTLTISSLQPEDFATYYCQQSLEYPFTFGGGTKVEIK
Usually Kd stands for the constant that tells how readily two partners part at equilibrium. Low values mean tighter binding, high ones weaker binding. For B1, binding was characterised by a dissociation constant (Kd) of 0.0708 nM.
